Measured values: the supplement of paper PMC10567573

B1: TRIM55 (parent)
chain: ICPICLEMFTKPVVILPCQHNLCR
B2: TRIM63 (parent)
chain: QRITQEQEKKLSFIEALIQQYQEQ

Variants of: B1
Experiment: protein stability index of a GFP-peptide fusion (GPS, HEK-293T) (PSI 1-6); higher = more stable
Conditions: c terminus: a fixed tail appended
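Also: lentivirally expressed fusions sorted by FACS into six bins by GFP to DsRed ratio, PSI derived from sequencing read proportions per bin multiplied by bin number.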

Protein stability index, by site and new letter:
V14: A 2.56; I 2.4; M 2.98; S 3.12
M8: P 2.71; C 2.44; H 2.76; L 1.66; Q 3.31; R 2.42; K 2.98; W 3.09; A 2.76
P3: R 1.27; W 1.9; D 2.53; E 2.21; Q 1.2; Y 1.27; V 2.21; N 2.13; L 2.17; S 1.75; M 2.07
K11: V 1.98; R 1.87; N 2.32; Y 1.69; Q 2.6; F 2.2; G 2.56
F9: Y 2.18; V 2.86; A 2.64; D 3.1; G 2.52; N 2.75; R 2.18; C 2.81
L6: Q 1.99; K 2.81; V 1.95; W 2.77; A 2.03; I 2.32
C23: Q 2.21; G 2.01; D 1.97; R 2.47; L 2.28; Y 2.25
R24: L 2.11; C 2.27; D 2.27; G 2.41; W 2.35; K 2.32
C5: D 2.05; Y 2.3; S 2.38; N 2.01; R 1.22; G 1.8; Q 1.18; L 1.72
I4: P 1.94; D 2.49; W 2.34; K 2.74; M 1.86; G 2.03; V 2.51; T 2.31
V13: R 2.19; E 2.61; T 2.62; I 2.11; D 3.31; C 2.21; M 2.33; W 1.89; S 2.58; Y 1.99
C2: W 1.22; V 2.11; Q 1.73; Y 2.49; H 1.96; D 1.96; N 1.78; G 1.77; A 2.31; I 1.56; E 2.05
Q19: S 2.23; D 2.54; E 2.28; G 2.85; P 2.12; Y 2.31; H 2.09; V 2.18; I 2.68
H20: S 2.12; M 1.54; Y 1.52; V 1.34; K 1.87; E 1.68; P 2.23; A 2.22; I 1.45; N 1.88
I15: T 2.88; K 2.09; D 2.81; Q 3.22; V 2.14
T10: A 2.23; Y 2.06; E 2.59; D 2.48; H 2.27
P12: T 2.34; E 2.55; R 2.05; L 2.02; W 1.97; C 2.42; N 2.99; Y 1.8; S 2.59; I 2.23
N21: W 2.19; I 2.04; T 2.39; L 2.01; S 2.93; A 2.73; M 2.29; H 2.39; V 2.35
L22: Y 2.08; F 1.99; T 2.17; E 2.45; G 2.44
E7: K 1.87; H 2.29; D 2.35; T 1.85; R 2.24; Y 2.07
P17: A 1.97; I 2.18; R 2.17; Q 2; N 1.86; S 2.91; G 1.83
I1: V 2.4; H 2.62; E 2.85; T 2.51; P 2.19; Y 1.92; G 2.46; S 2.72; D 2.75; M 2.44; L 2.72; F 2.58
C18: E 2.48; S 2.23; P 2.11; K 1.89; M 2.16; V 1.91
L16: Y 2.39; N 2.67; R 2.24; P 3.02; Q 2.62

Variants of: B2
Experiment: as above
Conditions: c terminus: a fixed tail appended

Protein stability index, by site and new letter:
Q5: E 2.98; S 2.17; N 2.32; K 2.82; C 2.39; R 2.24; Y 2.27; V 1.94; H 2.05; W 1.24; D 2.74; L 1.68; M 2.33; G 2.62; P 2.13; A 2.5; I 2.39; F 1.73; T 2.58
R2: K 2.26; W 2.2; V 2.72; T 2.42; I 1.89; E 1.88; Q 2.23; M 2.48; D 3.23; L 2.63; A 2.57; C 2.85; G 2.35; H 2.44; Y 1.75; F 2.06; S 2.45; P 3.23; N 2.91
Q1: C 2.11; F 2.91; T 2.19; K 2.17; A 2.3; N 2.31; S 2.23; M 2.36; I 2.75; Y 1.95; P 2.17; E 3.15; V 1.79; L 2.57; W 1.95; H 2.84; D 2.32; R 2.16; G 2.13
Q7: H 2.32; D 3.02; K 1.96; V 3.28; N 3.1; W 3.76; S 2.86; F 2.02; M 2.46; I 4.42; E 2.76; T 3.54; Y 2.12; G 1.83; P 2.31; A 2.16; L 3.44; R 2.29; C 2.83
E6: T 1.7; W 1.43; L 1.8; K 2; R 1.88; M 2.27; H 1.71; C 1.83; S 2.09; G 2.39; P 1.97; Q 1.75; I 1.62; D 2.12; N 1.73; F 1.9; A 2.24; V 1.81
E8: M 1.62; S 2.17; L 1.86; R 1.56; Q 2.12; N 1.97; C 2.09; G 1.87; K 2.12; P 1.66; T 2.28; Y 1.82; I 1.9; F 2.03; A 2.18; H 1.75; D 1.95
K9: C 2.29; A 2.6
I3: R 2.76; Y 2.16; F 2.61; M 1.83; N 2.48; A 2.37; S 2.59; H 2.54; Q 2.33; K 2.37; E 2.45; D 2.22; V 2.56; C 2.3; P 2.62; T 2.39; G 2.31; W 2.44; L 2.5
T4: V 2.87; R 2.79; P 2.87; N 2.59; G 2.73; Y 1.66; W 1.71; M 2.7; C 2.1; Q 2.89; K 2.8; I 2.55; S 2.5; F 2.2; L 2.63; A 3.01; H 1.8; E 3.19; D 3.22
